# According to IntAct's records for PubMed 16099979:
# B1: Protein FD (Arabidopsis thaliana (Mouse-ear cress)), Q84JK2 (parent)
# chain: MLSSAKHQRNHRLSATNKNQTLTKVSSISSSSPSSSSSSSSTSSSSPLPSQDSQAQKRSLVTMEEVWNDINLASIHHLNRHSPHPQHNHEPRFRGQNHHNQNPNSIFQDFLKGSLNQEPAPTSQTTGSAPNGDSTTVTVLYSSPFPPPATVLSLNSGAGFEFLDNQDPLVTSNSNLHTHHHLSNAHAFNTSFEALVPSSSFGKKRGQDSNEGSGNRRHKRMIKNRESAARSRARKQAYTNELELEVAHLQAENARLKRQQDQLKMAAAIQQPKKNTLQRSSTAPF
# Variants of: B1
# Settings: with ft_arath FT
row,effect of a mutation on the interaction,Variant
1,decreasing interaction,T282S
2,decreasing interaction,T282A
